Assay results published in US20190010196A1 (GOVERNING COUNCIL OF THE UNIVERSITY OF TORONTO, published 2019).
Square brackets hold non-standard residues; d marks the D form. Ends that are not written are not given here. * marks the point of attachment. Biotin = O=C1N[C@H]2[C@H](CS[C@H]2CCCCC(=O)*)N1; Lys(Me2) = CN(C)CCCC[C@H](N)C(=O)O

Molecular target: T1, MBP-53BP1-Tudor protein (residues 1484-1603) (UniProt Q12888 1484-1603)
T1 construct: range 1484-1603; also called MBP-Tudor fusion of 53BP1; not shown: MBP fusion partner
T1 sequence (Q12888 1484-1603): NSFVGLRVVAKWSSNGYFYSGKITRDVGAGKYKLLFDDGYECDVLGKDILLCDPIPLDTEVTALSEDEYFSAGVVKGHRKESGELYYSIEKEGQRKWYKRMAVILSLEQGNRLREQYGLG
Assay: pulldown competition on MBP-53BP1-Tudor; competitor GST-UbvG08; immunoblot

B1: biotin-labeled peptide derived from histone H4K20me2 (peptide)
peptide: {Biotin-Mini‑PEG}-YGKGGAKRHR[Lys(Me2)]VLRD
notes: Synthetic peptide (BioBasic Canada Inc.); also called H4K20me2 peptide
  IC50: 100 to 300 µM
